Data reported in paper PMC12273641, “A cryo-electron microscopy structure of yeast Pex5 in complex with a cargo uncovers a novel binding interface” (Journal of Cell Science, 2025).

Assays:
[1] = target: T1, Pex5 (full-length Saccharomyces cerevisiae Pex5, 1-612, His-Sumo fusion cleaved off) (Saccharomyces cerevisiae, UniProt P35056 1-612); experiment: cryo-EM structure; single-particle cryo-EM of the co-expressed, co-purified Pex5–Eci1 complex (2 mg/ml, in PBS); 2.7 Å global, 2.9 Å local refinement of Pex5 and the interface; details: both partners purified
T1 construct: Pex5, peroxisomal PTS1 cargo factor, Saccharomyces cerevisiae, full-length (1-612), cloned into pET28-bdSumo; only L276-F612 is resolved in the cryo-EM map; also called yeast Pex5; full-length yeast Pex5; source: for cryo-EM co-expressed with Eci1 and co-purified (Ni beads, elution by bdSumo protease, SEC); not shown: His tag, N-terminal, cleaved; bdSumo, N-terminal, cleaved
T1 sequence (looked up): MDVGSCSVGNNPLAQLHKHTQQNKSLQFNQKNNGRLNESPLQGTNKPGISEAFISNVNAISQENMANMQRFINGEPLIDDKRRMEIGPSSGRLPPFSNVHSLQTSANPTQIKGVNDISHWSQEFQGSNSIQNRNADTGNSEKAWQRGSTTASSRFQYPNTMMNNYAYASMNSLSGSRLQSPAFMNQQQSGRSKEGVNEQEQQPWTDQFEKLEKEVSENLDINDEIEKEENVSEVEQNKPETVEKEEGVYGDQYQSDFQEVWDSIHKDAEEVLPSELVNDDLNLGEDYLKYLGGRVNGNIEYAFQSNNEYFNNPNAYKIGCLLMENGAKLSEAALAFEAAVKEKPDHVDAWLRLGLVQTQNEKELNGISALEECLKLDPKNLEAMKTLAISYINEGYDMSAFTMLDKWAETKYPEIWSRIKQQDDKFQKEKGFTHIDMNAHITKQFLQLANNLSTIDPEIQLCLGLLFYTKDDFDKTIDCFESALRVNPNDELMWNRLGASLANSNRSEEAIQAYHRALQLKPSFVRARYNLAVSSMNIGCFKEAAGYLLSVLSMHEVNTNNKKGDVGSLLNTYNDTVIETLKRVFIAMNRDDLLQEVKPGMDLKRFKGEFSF

[2] = target: the molecule itself; experiment: as above

B1: FLAG-Eci1 wild type (Saccharomyces cerevisiae Δ3,Δ2-enoyl-CoA isomerase 1) (natural protein, UniProt Q05871 1-280, looked up)
chain: MSQEIRQNEKISYRIEGPFFIIHLMNPDNLNALEGEDYIYLGELLELADRNRDVYFTIIQSSGRFFSSGADFKGIAKAQGDDTNKYPSETSKWVSNFVARNVYVTDAFIKHSKVLICCLNGPAIGLSAALVALCDIVYSINDKVYLLYPFANLGLITEGGTTVSLPLKFGTNTTYECLMFNKPFKYDIMCENGFISKNFNMPSSNAEAFNAKVLEELREKVKGLYLPSCLGMKKLLKSNHIDAFNKANSVEVNESLKYWVDGEPLKRFRQLGSKQRKHRL
notes: Eci1 (Δ3,Δ2-enoyl-CoA isomerase 1), Saccharomyces cerevisiae, wild type, M1-L280, ends in the PTS1 tripeptide 278HRL280; cloned into the first open reading frame of pACYCDuet-1; A TEV cleavage site follows the N-terminal FLAG tag; no TEV cleavage is described; Hexamer by cryo-EM; also called Eci1 WT; Eci1 (WT); source: E. coli BL21(DE3): co-expressed with Pex5, in lysate (pull-down); purified …
stoichiometry N [1]: 6 Eci1 per Pex5 | stoichiometry N [2]: 6
